What was measured:
[1] = biological target: Fc receptor on THP-1 cells; experiment: cell-based or functional assay
amyloid-beta (A-beta) = experiment: Competition of a RAGE ligand with immobilized amyloid-beta for binding to the fusion protein; conditions: TTP-4000 initial solution diluted 1:10 or 1:30; RAGE ligand FAC 10 μM
Protocol: The fusion protein of the present invention may also be used to identify compounds having the ability to bind to RAGE.
Known RAGE ligands were coated onto the surface of Maxisorb plates at a concentration of 5 micrograms per well. Plates were incubated at 4° C. overnight. Following ligand incubation, plates were aspirated and a blocking buffer of 1% BSA in 50 mM imidizole buffer (pH 7.2) was added to the plates for 1 hour at room temperature. The plates were then aspirated and/or washed with wash buffer (20 mM Imidizole, 150 mM NaCl, 0.05% Tween-20, 5 mM CaCl2 and 5 mM MgCl2, pH 7.2). […] The fusion protein was added at increasing dilutions of the initial sample. The RAGE fusion protein was allowed to incubate with the immobilized ligand at 37° C. for one hour after which the plate was washed and assayed for binding of the fusion protein. Binding was detected by the addition of an immunodetection complex containing a monoclonal mouse anti-human IgG1 diluted 1:11,000 to a final assay concentration (FAC) of 21 ng/100 μL, a biotinylated goat anti-mouse IgG diluted 1:500, to a FAC of […], and an avidin-linked alkaline phosphatase. […] Binding of the complex to the immobilized fusion protein was quantified by measuring conversion of PNPP to para-nitrophenol (PNP) which was measured spectrophotometrically at 405 nm. […]

[2] = system: Zucker diabetic rats, restenosis following vascular injury; experiment: Diabetic rat model of restenosis (balloon injury of left common carotid artery); type: in vivo; conditions: 4 days after injury; dose-responsive; FIG. 13B
Protocol: In these experiments, balloon injury of left common carotid artery was performed in Zucker diabetic and nondiabetic rats using standard procedure. […] A maintenance dose was delivered every other day until day 7 after injury (i.e., at day 1, 3, 5 and 7 after injury). The maintenance dose was high=1 mg/animal for one group, or low=0.3 mg/animal for the second group. To measure vascular smooth muscle cell (VSMC) proliferation, animals were sacrificed at 4 days and 21 days after injury. For the measurement of cell proliferation, 4 day animals received intraperitoneal injection of bromodeoxyuridine (BrDdU) 50 mg/kg at 18, 12, and 2 hours before euthanasia. After sacrifice, the entire left and right carotid arteries were harvested. Specimens were stored in Histochoice for at least 24 hours before embedding. Assessment of VSMC proliferation was performed using mouse anti-BrdU monoclonal antibody. A fluorescence labeled goat anti-mouse secondary antibody was applied. The number of BrdU-positive nuclei per section were counted by two observers blinded to the treatment regimens. The remaining rats were sacrificed at 21 days for morphometric analysis. […] All data were expressed as mean±SD. […]

[3] = system: S100b/RAGE-induced production of TNF-α in THP-1 cells; experiment: Inhibition of S100b/RAGE-induced production of TNF-α in THP-1 cells; type: cell-based; conditions: 10 μg protein
Protocol: THP-1 myeloid cells may be cultured in RPMI-1640 media supplemented with 10% FBS and induced to secrete TNF-α via stimulation of RAGE with S100b. When such stimulation occurs in the presence of a RAGE fusion protein, induction of TNF-α by S100b binding to RAGE may be inhibited.
Previous work has shown that the myeloid THP-1 cells may secrete TNF-α in response to RAGE ligands. In this assay, THP-1 cells were cultured in RPMI-1640 media supplemented with 10% FBS using a protocol provided by ATCC. […] The amount of TNF-α secreted by the THP-1 cells was measured 24 hours after the addition of the proteins to the cell culture using a commercially available ELISA kit for TNF-α (R&D Systems, Minneapolis, Minn.).

[4] = system: male C57BL/6 mice, cerebral ischemia; experiment: Mouse model of stroke (cerebral ischemia and reperfusion, infarct); type: in vivo; conditions: treated just prior to reperfusion
Protocol: For example, the RAGE fusion proteins of the present invention may also be used to treat stroke. […] In this model, the […] of a mouse is ligated and then reperfused to form an infart. To assess the efficacy of RAGE fusion proteins to treat or prevent stroke, mice were treated with sRAGE or TTP-4000 or control immunoglobulin just prior to reperfusion.
TTP-4000 was also compared to sRAGE in a disease relevant animal model of stroke. In this model, the […] of a mouse was ligated for 1 hour followed by 23 hours of reperfusion at which point the mice were sacrificed and the area of the infarct in the brain was assessed. […] After the nylon suture had been in place for 1 hour, the animal was re-anesthetized, rectal temperature was recorded and the suture was removed and the incision closed.
Infarct volume was determined by anesthetizing the animals with an intraperitoneal injection of sodium pentobarbital (50 mg/kg) and then removing the brains. […] The infarct area in each section was determined with a computer-assisted image analysis system, consisting of a Power Macintosh computer equipped with a Quick Capture frame grabber card, Hitachi CCD camera mounted on a camera stand. […] The images were captured and the total area of infarct was determined over the sections. […] Summing the infarct volumes of the sections calculated the total infarct volume. […]

Molecule	TNF secreted by THP-1 cells in wells precoated with 10 ug/well heat aggregated human IgG1, 24 hours [1]	binding of fusion protein to immobilized amyloid-beta blocked by the RAGE ligand (amyloid-beta (A-beta))	vascular smooth muscle cell proliferation (number of BrdU proliferating cells) [2]	blocking S100b induction of TNF-α compared with sRAGE [3]	reduction in infarct volume compared to sRAGE [4]
human IgG1 (heat aggregated) (antibody)	> 40 ng/well	–	–	–	–
TTP-4000: four domain RAGE-IgG Fc fusion protein, SEQ ID NO: 32: human RAGE amino acids 1-251 linked to CH2 and CH3 domains of human IgG (protein, listed as Homo sapiens) MAAGTAVGAWALVLSLWGAVVGAQNITARIGEPLVLKCKGAPKKPPQRLEWKLNTGRTEAWKVLSPQGGGPWDSVARVLPNGSLFLPAVGIQDEGIFRCQAMNRNGKETKSNYRVRVYQIPGKPEIVDSASELTAGVPNKVGTCVSEGSYPAGTLSWHLDGKPLVPNEKGVSVKEQTRRHPETGLFTLQSELMVTPARGGDPRPTFSCSFSPGLPRHRALRTAPIQPRVWEPVPLEEVQLVVEPEGGAVAPPSVFLFPPKPKDTLMISRTPEVTCVVVDVSHEDPEVKFNWYVDGVEVHNAKTKPREEQYNSTYRVVSVLTVLHQDWLNGKEYKCKVSNKALPAPIEKTISKAKGQPREPQVYTLPPSRDELTKNQVSLTCLVKGFYPSDIAVEWESNGQPENNYKTTPPVLDSDGSFFLYSKLTVDKSRWQQGNVFSCSVMHEALHNHYTQKSLSLSPGK	–	completely inhibited	significantly reduced	at least as effective	significantly greater reduction

From patent publication US20060078562A1, “RAGE fusion proteins and methods of use” (priority 2004, published 2006)
